Patent US20140120095A1 (Boehringer Ingelheim, published 2014)

T1: human DLL1 (human, UniProt O00548 18-545, limits assumed)
T1 construct: also called hDLL1
T1 sequence (looked up): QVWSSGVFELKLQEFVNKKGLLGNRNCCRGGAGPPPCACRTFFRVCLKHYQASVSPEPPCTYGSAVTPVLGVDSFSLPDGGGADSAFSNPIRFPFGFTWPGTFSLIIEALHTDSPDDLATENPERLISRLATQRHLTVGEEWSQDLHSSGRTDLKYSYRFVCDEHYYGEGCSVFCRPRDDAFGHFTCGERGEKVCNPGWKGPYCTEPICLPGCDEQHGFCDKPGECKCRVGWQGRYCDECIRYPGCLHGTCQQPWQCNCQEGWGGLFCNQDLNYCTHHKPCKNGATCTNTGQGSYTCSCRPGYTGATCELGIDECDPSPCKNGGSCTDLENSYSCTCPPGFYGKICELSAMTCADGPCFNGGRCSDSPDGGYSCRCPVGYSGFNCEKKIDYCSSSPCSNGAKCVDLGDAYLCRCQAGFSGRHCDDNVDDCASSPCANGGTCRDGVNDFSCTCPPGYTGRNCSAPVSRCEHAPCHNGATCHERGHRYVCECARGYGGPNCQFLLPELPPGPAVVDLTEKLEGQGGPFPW


How the values were obtained:
[1] = molecular target: T2, mouse DLL4, full length, overexpressed on CHO cells (mouse, UniProt Q9JI71 27-686); assay: FMAT, hNotch1-Fc on CHO-mDLL4, -HSA
T2 construct: whole, on cells; also called mDLL4; CHO-mDLL4

[2] = molecular target: T3, human DLL4, full length, overexpressed on cells (human, UniProt Q9NR61 27-685); assay: FMAT, hNotch1-Fc on CHO-hDLL4, +25 uM HSA
T3 construct: CHO cells in FMAT, HEK293 cells in the reporter assay; also called hDLL4; CHO-hDLL4

[3] = molecular target: T2, mouse DLL4, full length, overexpressed …; assay: FMAT, hNotch1-Fc on CHO-mDLL4, +25 uM HSA
[4] = molecular target: T3, human DLL4, full length, overexpressed …; assay: cell-based or functional assay
[5] = molecular target: T3, human DLL4, full length, overexpressed …; assay: FMAT, hNotch1-Fc on CHO-hDLL4, -HSA
recombinant human DLL4 [6] = molecular target: T4, recombinant human DLL4 (human, UniProt Q9NR61 25-522); assay: binding ELISA, coated rhDLL4
T4 construct: also called rhDLL4; hDLL4
Method: (§1) In order to determine cross-reactivity to mouse DII4 a binding ELISA is performed. […] Wells are blocked with a casein solution (1% in PBS). VHHs are applied as dilution series and binding is detected using a mouse anti-myc (Roche) and an anti-mouse-AP conjugate (Sigma, St Louis, Mo., USA) (FIG. 7 A-H). As reference, binding to human DII4 is measured.

human Jagged-1 = molecular target: T5, human Jagged-1 (human, UniProt P78504 34-1067, limits assumed); assay: binding ELISA on coated recombinant human Jagged-1, OD 405 nm
T5 construct: also called hJagged-1; hJAG1
Method: (§2) Absence of binding to homologous ligands human DLL1 and human Jagged-1 is assessed via solid phase binding assay (ELISA). In brief, human DLL1 (Alexis, San Diego, Calif., USA) and human Jagged-1 (Alexis, San Diego, Calif., USA) are coated overnight at 4° C. at 1 μg/mL in a 96-well MaxiSorp plate (Nunc, Wiesbaden, Germany). Wells are blocked with a casein solution (1% in PBS). VHHs are applied as dilution series and binding is detected using a mouse anti-myc (Roche) and an anti-mouse-AP conjugate (Sigma, St. Louis, Mo., USA).

recombinant human DLL4 [7] = molecular target: T4, recombinant human DLL4; assay: hDLL4 ELISA screen, periplasmic extract
[8] = molecular target: T6, human DLL4 overexpressed on cells (human, UniProt Q9NR61 27-685); assay: competitive FMAT, hNotch1-Fc on CHO-hDLL4
T6 construct: full length human DLL4 on CHO or HEK293 cells; also called CHO-hDLL4; CHO-hDII4

recombinant mouse DLL4 = molecular target: T7, recombinant mouse DLL4 (mouse, UniProt Q9JI71 27-532); assay: binding ELISA on coated recombinant mouse DLL4, OD 405 nm
T7 construct: extracellular domain; also called rmDLL4; mDLL4
Method: as §1

human DLL1 = molecular target: T1, human DLL1; assay: binding ELISA on coated recombinant human DLL1, OD 405 nm
Method: as §2

recombinant human DLL4 [9] = molecular target: T4, recombinant human DLL4; assay: competition AlphaScreen, biot-hDLL4/hNotch1-Fc
Method: In brief, 1 nM biotinylated human DII4 is captured on streptavidin-coated donor beads (20 μg/mL), while 0.4 nM of the receptor human Notch1 (as a Fc fusion protein) is captured on anti-human Fc VHH-coated acceptor beads (20 μg/mL). Both loaded beads are incubated together with a dilution range of the competing VHH (FIG. 4 A-E).

recombinant human DLL4 [10] = molecular target: T4, recombinant human DLL4; assay: competition ELISA, biot-hDLL4 to coated hNotch1-Fc
Description: Residual binding of biotinylated human DII4 is detected using horseradish peroxidase (HRP) conjugated extravidin (Sigma, St. Louis, Mo., USA) (FIG. 3 A-C). Human DII4 is biotinylated as described above.

[11] = molecular target: VEGF (used to stimulate HUVEC cells) (UniProt P15692-4 27-191, limits assumed); assay: cell-based or functional assay
[12] = molecular target: T8, recombinant human VEGF165 (human, UniProt P15692-4 27-191, biotinylated in the competition assays); assay: AlphaScreen, hVEGF165/hVEGFR1-Fc competition, -HSA
T8 construct: Bought protein; also called hVEGF165; rhVEGF165

[13] = molecular target: T8, recombinant human VEGF165; assay: AlphaScreen, hVEGF165/hVEGFR2-Fc competition, +5 uM HSA
Method: These 2 competition assays are also performed after preincubation of the VHHs with 5 μM human serum albumin.

[14] = molecular target: T8, recombinant human VEGF165; assay: AlphaScreen, hVEGF165/hVEGFR2-Fc competition, -HSA

T2 sequence (Q9JI71 27-686): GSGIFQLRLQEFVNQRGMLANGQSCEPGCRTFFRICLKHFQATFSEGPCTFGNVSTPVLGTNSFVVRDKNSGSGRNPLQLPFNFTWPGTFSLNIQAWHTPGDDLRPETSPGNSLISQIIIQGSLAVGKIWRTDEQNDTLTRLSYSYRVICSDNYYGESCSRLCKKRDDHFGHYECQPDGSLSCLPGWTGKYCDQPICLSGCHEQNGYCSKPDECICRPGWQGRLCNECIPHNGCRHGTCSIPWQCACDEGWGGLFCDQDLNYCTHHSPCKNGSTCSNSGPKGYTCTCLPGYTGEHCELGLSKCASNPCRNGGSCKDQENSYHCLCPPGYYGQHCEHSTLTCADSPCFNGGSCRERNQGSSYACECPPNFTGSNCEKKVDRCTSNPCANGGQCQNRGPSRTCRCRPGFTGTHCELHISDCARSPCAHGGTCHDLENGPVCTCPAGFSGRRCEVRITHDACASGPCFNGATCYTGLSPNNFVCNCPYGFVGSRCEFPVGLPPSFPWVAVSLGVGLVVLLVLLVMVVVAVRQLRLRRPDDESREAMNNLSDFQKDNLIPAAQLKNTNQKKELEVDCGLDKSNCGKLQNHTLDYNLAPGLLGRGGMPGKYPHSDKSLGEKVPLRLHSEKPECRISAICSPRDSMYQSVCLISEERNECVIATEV
T8 sequence (P15692 other isoform, or with tags, fused parts or gaps): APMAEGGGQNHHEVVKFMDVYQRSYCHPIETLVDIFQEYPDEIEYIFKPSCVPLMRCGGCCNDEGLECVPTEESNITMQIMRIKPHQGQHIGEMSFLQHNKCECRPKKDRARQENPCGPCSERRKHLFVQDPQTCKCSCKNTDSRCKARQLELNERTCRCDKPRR
T7 sequence (Q9JI71 27-532): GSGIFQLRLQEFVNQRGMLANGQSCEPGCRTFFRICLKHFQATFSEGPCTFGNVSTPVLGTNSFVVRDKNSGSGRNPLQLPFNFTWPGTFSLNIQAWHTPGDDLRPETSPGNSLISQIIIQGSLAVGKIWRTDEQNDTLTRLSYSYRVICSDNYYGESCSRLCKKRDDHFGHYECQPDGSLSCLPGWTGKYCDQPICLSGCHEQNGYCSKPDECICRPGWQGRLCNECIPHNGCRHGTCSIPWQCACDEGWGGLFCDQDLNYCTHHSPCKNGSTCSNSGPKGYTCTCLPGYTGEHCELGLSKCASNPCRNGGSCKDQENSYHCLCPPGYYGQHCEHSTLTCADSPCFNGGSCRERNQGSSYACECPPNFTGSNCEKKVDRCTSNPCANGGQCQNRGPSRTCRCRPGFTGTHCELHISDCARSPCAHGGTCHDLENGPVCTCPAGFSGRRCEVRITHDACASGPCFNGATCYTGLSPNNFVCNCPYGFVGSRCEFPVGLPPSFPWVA
Chain of VEGF (used to stimulate HUVEC cells) (P15692 other isoform, or with tags, fused parts or gaps limits assumed): as the sequence (P15692 other isoform, or with tags, fused parts or gaps) above

Row | % inh [1] [%] | IC50 [1] [nM] | % inh [2] [%] | IC50 [2] [nM] | % inh [3] [%] | IC50 [3] [nM] | IC50, DLL4 mediated reporter assay, +HSA [4] [nM] | % inh [5] [%] | IC50 [5] [nM] | EC50 (recombinant human DLL4 [6]) [nM] | binding result (human Jagged-1) | % inh (recombinant human DLL4 [7]) [%] | binding result (recombinant mouse DLL4) | binding result (human DLL1) | IC50 (recombinant human DLL4 [9]) [nM] | Binder | further results
1 | 100 | 16.4 | 94 | 7.1 | 100 | 17.6 | 103 | 94 | 6.8 | – | – | – | – | – | – | DLLBII136C07 (VHH, not shown: small tags and cut ends) VHH: EVQLVESGGGLVQPGGSLRLSCAASGFTFGSYDMSWVRRSPGKGPEWVSSINSGGGSTYYADYVKGRFTISRDNAKNTLYLQMNSLKPEDTAVYYCAADRYIWARQGEYWGAYEYDYWGQGTQVTVSS | –
2 | – | – | – | – | – | – | – | – | – | 0.9 | no binding (tested: 2.5e-7 M) | 96 | no binding (tested: 2.5e-7 M) | no binding (tested: 2.5e-7 M) | 0.4 | DLLBII08A09 (VHH, also called DLLBII8A09) VHH: EVQLVESGGGLVQPGGSLRLSCAASGFTLDYYNIGWFRQAPGKEREWVSCINSSDGSTYYADSVKGRFTISRDNAKNTVYLQMNSLKPEDTAVYYCAAPFAYYSNLCGVNGYDYWGQGTQVTVSS | IC50 [8]: 5.5 nM
3 | – | – | – | – | – | – | – | – | – | 1.8 | no binding (tested: 2.5e-7 M) | 98 | no binding (tested: 2.5e-7 M) | no binding (tested: 2.5e-7 M) | 0.7 | DLLBII05B11 (VHH, also called DLLBII5B11) VHH: EVQLVESGGGLVQPGGSLRLSCAISGFTLDLHVIGWLRQAPGKEREWVSCISSSDGSTYYADSVKGRFTISRDNAKNTVYLQMNSLKPEDTAVYYCAAPWDSWYCGIGNDYDYWGQGTQVTVSS | –
4 | – | – | – | – | – | – | – | – | – | 1.4 | no binding (tested: 2.5e-7 M) | 98 | no binding (tested: 2.5e-7 M) | no binding (tested: 2.5e-7 M) | 0.3 | DLLBII6B11 (VHH, also called DLLBII06B1) VHH: EVQLVESEGGLVQAGGSLRLSCAASGSTFSSYAMGWYRQAPGKQRELVAVISNGGITNYPNSVKGRFTISRDNAKNTVYLQMNSLKPEDTAVYYCFYSGSYYYPTDVHEYDYWGQGTQVTVSS | IC50 (recombinant human DLL4 [10]): 1.5 nM; IC50 [8]: 8.9 nM
5 | 100 | 19.3 | 100 | 12.4 | 100 | 23.8 | 98.5 | 100 | 12.2 | – | – | – | – | – | – | VEGFDLLBII013 (bispecific antibody, PEGylated at the Cys at position 15 of the 35 Gly-Ser linker, VEGFBII23B04 - 35GS(Cys15) - DLLBII129B05) EVQLVESGGGLVQTGDSLRLSCEVSGRTFSSYSMGWFRQAQGKEREFVVAISKGGYKYDSVSLEGRFTISKDNAKNTVYLQINSLKPEDTAVYYCASSRAYGSSRLRLADTYEYWGQGTQVTVSSGGGGSGGGGSGGGGCGGGGSGGGGSGGGGSGGGGSEVQLVESGGGLVQAGGSLRLSCAASGRTFSSYAMAWYRQAPGKEREYVAAIRWSGGTAYYADSVQGRFTISRDNAKNTVYLQMNSLKPEDTAVYYCANRAPDTRLAPYEYDHWGQGTQVTVSS | % inhibition, VEGF HUVEC proliferation assay, -HSA [11]: 92%; IC50, VEGF HUVEC proliferation assay, -HSA [11]: 0.73 nM; % inh [12]: 62%; IC50 [12]: 0.24 nM; % inh [13]: 100%; IC50 [13]: 0.17 nM; % inh [14]: 100%; IC50 [14]: 0.18 nM
6 | 100 | 3 | 90 | 4.3 | 100 | 3.7 | 88 | 90 | 3.2 | – | – | – | – | – | – | DLLBII129B05 (VHH, not shown: small tags and cut ends) VHH: EVQLVESGGGLVQAGGSLRLSCAASGRTFSSYAMAWYRQAPGKEREYVAAIRWSGGTAYYADSVQGRFTISRDNAKNTVYLQMNSLKPEDTAVYYCANRAPDTRLAPYEYDHWGQGTQVTVSS | –
7 | 100 | 95.3 | 100 | 41.5 | 100 | 103 | 582 | 100 | 44.9 | – | – | – | – | – | – | VEGFDLLBII012 (bispecific antibody, PEGylated at the Cys at position 15 of the 35 Gly-Ser linker, VEGFBII23B04 - 35GS(Cys15) - DLLBII136C07) EVQLVESGGGLVQTGDSLRLSCEVSGRTFSSYSMGWFRQAQGKEREFVVAISKGGYKYDSVSLEGRFTISKDNAKNTVYLQINSLKPEDTAVYYCASSRAYGSSRLRLADTYEYWGQGTQVTVSSGGGGSGGGGSGGGGCGGGGSGGGGSGGGGSGGGGSEVQLVESGGGLVQPGGSLRLSCAASGFTFGSYDMSWVRRSPGKGPEWVSSINSGGGSTYYADYVKGRFTISRDNAKNTLYLQMNSLKPEDTAVYYCAADRYIWARQGEYWGAYEYDYWGQGTQVTVSS | % inh [12]: 60%; IC50 [12]: 0.27 nM; % inh [13]: 100%; IC50 [13]: 0.22 nM; % inh [14]: 100%; IC50 [14]: 0.19 nM
8 | – | – | – | – | – | – | – | – | – | 7.2 | no binding (tested: 2.5e-7 M) | 84 | no binding (tested: 2.5e-7 M) | no binding (tested: 2.5e-7 M) | 1.1 | DLLBII07B05 (VHH, also called DLLBII7B05) VHH: EVQLVESGGGLVQAGGSLRLSCAASGFALDYYAVGWFRQAPGKEREGVSCISSRGGSTFYADSVKGRFTTSRNNAKNTVYLQMNSLKPEDTAVYYCAAHPLQNCCGGSAYASPEAVYEYWGQGTQVTVSS | –
